Experimental data reported in the RNAGym collection of RNA variant scans (doi:10.1073/pnas.2313332121).
Fewer inactive variants are shown than the library holds.

B1: TPR 5TU (parent)
chain: GGAUCUUCUCGAUCUAACAAAAAAGACAAAUCUGCCACAAAGCUUGAGAGCAUCUUCGGAUGCAGAGGCGGCAGCCUUCGGUGGCGCGAUAGCGCCAACGUUCUCAACUAUGACACGCAAAACGCGUGCUCCGUUGAAUGGAGUUUAUCAUG

Variants of: B1
Assay: polymerase ribozyme fitness, log enrichment relative to wild type (log ratio); higher = more active; in vitro selection for triplet polymerase activity
Outline: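 Mutant libraries for each subunit of a heterodimeric triplet polymerase ribozyme were made by PCR and then transcribed. Each library underwent one round of in vitro selection in triplicate: annealing with a biotinylated primer, the partner subunit and triplets, frozen incubation at −7 °C, gel excision of extended constructs, streptavidin-bead capture and RT-PCR. Input and output libraries were Illumina-sequenced, and only genotypes with ≥10 input reads and ≥1 read per output were kept. Fitness is the logarithm, base 2, of genotype enrichment over wild-type enrichment, computed from inverse-variance-weighted replicate averages.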

Variant | polymerase ribozyme fitness (log ratio)
GGAUCUUCUCGAUCUAACAAAUAAGACAAAUCUGACACAAAGCUUGAGAGCAUCUUCGGAUGCAAAGGAGGCAGCCUUCGGUGGCGCGAUAGCGCCAACGUUCUCAACUAUGACAUCCAAAACGCGUGCUCCGUUGAAUGGAGUUUAUCAUG | -3.86
GGAUCUUCUCGAUCUAACAAAAAAGACAAAUCUGCCACAAAGCUUGAGAGCAUCUUCCGAUGCAGAGGCGGCAGCCUUCGGUGGCGCGAUAGUGCCAACGUUCUCAACUGUGACACGCAAAACGCGUGCUCCGUUGAAUGGAGUUUAUCAUG | -3.82
GGAUCUUCUCGAUCUAACAAAAAAGACAAAUCUGUCACAAAGCUUGAGAGCAUCUUCGGAUGCAGAGGCGGCAGCCUUCGGUGGAGCGAUAGCGCCAACGUUUUCAACUAUGACACGCUAAACGCGUGCUCCGUUGAAUGGAGUUUAUCAUG | -2.38
GGAUCUUCUCGAUCUAACCAAAAAGACAAAUCAGCCACAAAGCUUGAGAGCAUCAUCGGAUGCAGAGGCGGCAGCCGUCGGUGGCGCGAUAGCGCCAACGUUCUCAACUAUGACACGCAAAAGGCGUGCUCCGUUGAAUGGAGUUUAUCAUG | ≤ -4.2
GGAUCUUCUCGAUCUAACAAAAAAGACAAAUCUGCCACAAAGCUUGAGAGCAUCUUCGGAUGCAGAGGCGGCAGCCUUCAGUGGCGUGAUAGCGCCAACGUUCUCAACUAUGACACGCAAAACGCGUGCUCCGUUGAAUGGAGUUUAUCAUG | -0.519
GGAUCUUCUCGAUCUAACAAAAAAGACUAAUAUGCCACAAAGCUUGAGACCAUCUUCGGAUGCAGAGGCGGCAGCCUUCGGUGGCGCGAUAGCGCAAACGUUCUCGACUAUGACACGCAAAACGCGGGCUCCGUUGAAUGGAGUUUAUCAUG | ≤ -4.2
GGAUCUUCUCGAUCUAACAAACAAGACAAAUCUGCCACAAAGCUUGAGAGCAUCUUCGGCUUCAGAGGCGGCAGCCUUCGGUGGCGCGAUAGCGCCAACGUUCUCAACUAUGACACGCAAAACGCGUGCUCCGUUGAAUGGAGUUUAUCAUG | -2.13
GGAUCUUCUCGAUCUAACAAAAAAGACAAAUCUGCCACAAAGCUUGAGAGCAUCUUCGGAUUCAGAGGCGGCAGCCUUCGGUGGCGCGAUAGCGCCAACGUUUUCAACUAUGACACGCAAAACGCGUGCUCCGUUGAAUGGAGUUUAUCAUG | -0.754
GGAUCUUCUCGAUCUAACAAAAAAGACAAAUCUGCCACAAAGCUUGAGAGCAUCUUCGGAUGCAGAGGCGGAAGCCUUCGGUGGCGCGAUAGCGCCAACGUUAUCAACUAUGACACGCAAAACGCGUGCUCCGUUGAAUGGAGUUUAUCAUG | ≤ -4.2
GGUUCAUCUCGAUCUAACUAAAAAGACAAAUCUGCCACAAAUCUUGAGAGCAUCUUCGGAUGCAGAGGCGGCAGCCUUCGGUGGCGCGAUAGCGCCAACGUUCUCAACUAUGGCACGCAAUACCCGUGCUCCGUUGAAUGGAGUUUAACAUG | ≤ -4.2
GGAUCUUCUCGAUCUAACAAAAAAGACAAAUCUGCCACAAAGCUUGAGAGCAUCUUUGGAUGCAGAGGCGGCAGCCUUCGCUGGCGCGAUAGCGACAACGUUCUCAACUAUGACACGCAAACCGCGUGCUCCGUUGAAUGGAGUUUAUCAUG | -0.59
GGAUCUUCUCGAUCUAACAAAAAAGACAAAUCUGCCACAAAGCUUGAGAGCAUCUUCGGAUGCAGAGGCGGCAGCCUUCGGUGGCGCGAUAGCGCCAACGUUCUCAACUAUGCCAAGCAAAACGCGUGCUCCGUUGAAUGGAGUUUAUCAUG | ≤ -4.2
GGAUCUUCACGAUCUAACAAAAAAGACAACUCUGCCACAGCGCUUGAGAGCAUCUUUGGAUGCAGAGGCGGCAGCCUUCGGUGGCGCGAUAGCGGCAACGUUCUCAACUAUGACACGCAAAACGCGUGCUCCGUUGAAUGGAGUUUAUCAUG | ≤ -4.2
GGAUCUUCACGAUCUAACAAAGAAGACAAAUCUGCAACCAAGCUUGAGAGCAUCUUCGGAUGCAUAGGCGGCAGCCUUCGGUGGCGUGAUAGCGACAACGUUCUCAACUAUGACACGCAAAACGCAUGCUCCGUUAAACGGAGUUUAUCAUG | ≤ -4.2
GGAUCUUCUCGAUCUAACAAAAAAGACAUAUCUGCCCCAAAGCUUGAGAGCAUCGUCGGAUGCAGAGGCGGCAGCCUUCGGUGGCGCGAUAGCGCCAACGUUCUCAACUAUGACACGCAAAACGCGUGCUCCGUCGAAUGGAGUUUAUCAUG | ≤ -4.2
GGAUCUUCUCGAUCUAACAAAAAAGACAAAUCUGCCACAAAGCUUGAGAGCAUCUUCGGAUGCAGAGGCGGCGGCCUUCGGUGGCACGAUAGCGCCAACGUUCUCAACUAUGACACGCAAAACGCGUGCUCCGUUGAAUGGAGUUUAUCGUG | ≤ -4.2
GGAUCUUCUCGAUCUAACAAGAAAGACAAAUCUGCCACAAAGCUUGAGAGCAUCUUCGGAUGCAGAGGCGGCAGUCUUCGGUGGCGCGAUAGCGCCAACGUUCUCAACUAUGACACGCAGAACGCGUGCUCCGUUGAAUGGAGUUUAUCAUG | 0.879
GGAUCUUCUCGAUCUAACAAAAAAGACAAAUCUGCCACAAAGCUUGAGAGCAUCUUCGGAUGCAGAGGCGGCAGCCUUCGGUGGCGCGAUUGCGCCGACGUUCUCAACUAUGACACGCAAAUCGCGUGCUCCGUUGAAUGGAGUUUUUCAUG | ≤ -4.2
GGUUCUUCUCGAUCUAACAAAAAAGACAAAUCUGCCACAAAGCUUGAGAGCAUCUUAGGAUGCAGAGGCGACAGCCUUCGGUGGCGCGAUGGCGCCAACGUUCUCAACUAUGACACGCAAAACGCGUGCUCCGUUGAAUGGAGUUUAUCAUG | ≤ -4.2
